Holding throughout (assay): UDP-GlcA formation by UHPLC, Michaelis-Menten fit, crude extract
Holding throughout (settings): 0.5 mM NAD+, 50 mM Tris-HCl pH 8.0, 30 °C, 0.5 g/L extract protein, 1-5 mM UDP-Glc

Substrate in data set [1]: O=c1ccn([C@@H]2O[C@H](CO[P@@](=O)(O)O[P@@](=O)(O)O[C@H]3O[C@H](CO)[C@@H](O)[C@H](O)[C@H]3O)[C@@H](O)[C@H]2O)c(=O)[nH]1
Format: biochemical, Capra hircus. The source says:
UDP-GlcA formation by UHPLC, Michaelis-Menten fit, crude extract on ChUGD

Substrate in data set [2]: O=c1ccn([C@@H]2O[C@H](CO[P@@](=O)(O)O[P@@](=O)(O)O[C@H]3O[C@H](CO)[C@@H](O)[C@H](O)[C@H]3O)[C@@H](O)[C@H]2O)c(=O)[nH]1
In kind it is biochemical, Zymomonas mobilis. The text has this:
(§1) UDP-GlcA formation by UHPLC, Michaelis-Menten fit, crude extract on ZmUGD

Substrate in data set [3]: O=c1ccn([C@@H]2O[C@H](CO[P@@](=O)(O)O[P@@](=O)(O)O[C@H]3O[C@H](CO)[C@@H](O)[C@H](O)[C@H]3O)[C@@H](O)[C@H]2O)c(=O)[nH]1
Format: biochemical, Zymomonas mobilis.
Description: as §1
The source holds these as a separate data set.

B1: ChUGD (Capra hircus) (protein)
chain: MFEIKKICCIGAGYVGGPTCSVIAHMCPEIRVTVVDINESRINAWNSPTLPIYEPGLKEVVESCRGKNLFFSTNIDDAIKEADLVFISVNTPTKTYGMGKGRAADLKYIEACARRIVQNSHGYKIVTEKSTVPVRAAESIRRIFDANTKPNLNLQVLSNPEFLAEGTAIKDLKNPDRVLIGGDETPEGQRAVQALCAVYEHWVPREKILTTNTWSSELSKLTANAFLAQRISSINSISALCEATGADVEEVATAIGMDQRIGSKFLKASVGFGGSCFQKDVLNLVYLCEALNLPEVARYWQQVIDMNDYQRRRFASRIIDSLFNTVTDKKIAILGFAFKKDTGDTRESSSIYISKYLMDEGAHLHIYDPKVPREQIVVDLSHPGVSKDDQVARLVTISKDPYEACDGAHAVVICTEWDMFKELDYERIHKKMLKPAFIFDGRRVLDGLHNELQTIGFQIETIGKKVSSKRIPYAPSGEIPKFSLQDMPNKKPRV
notes: codon-optimized synthetic gene, N-terminal 6xHis tag, expressed in S. cerevisiae, crude soluble cell extract
B1: the Km – broadly, the concentration of substrate that gives half-maximal velocity – in data set [1] is reported as 841 µM.

B2: ZmUGD (Zymomonas mobilis) (protein)
chain: MRITMIGSGYVGLVSGACFSDFGHNVICVDHDQEKIALLQKGVMPIYEPGLADMVANNVKAGRLSFSNDLASSVKDADAVFIAVGTPSRRGDGHADLSYVFAAAKEIAASVSDNTVVVDKSTVPVGTGDEVERIIREIAPDKKIWVASNPEFLREGAAIGDFKRPDRIVIGTENPEAREIMQEIYRPLYLNQSPILFTSRRSAELIKYASNAFLATKITFINEMADLCEAVGGDVQDVARGIGADNRIGSKFLHAGPGYGGSCFPKDTLALLKTAENFATPLRVVESVVTANNIRKRAMARKVLQAIGKDMRGQKIGLLGLTFKPNTDDMRDAPSLALIQGLEDAGAIIHAYDPEGMTQARPLLPNVVFEDEPYKVAEKAEALVIVTEWDAFRALDLKRIAGLLKTPLLLDLRNIYTEEEAKKAGLVYHGIGRPHAG
notes: N-terminal 6xHis tag (pRSFDuet-1), expressed in E. coli BL21 (DE3), crude soluble cell extract (host has a predicted own UGD)
As to B2, the values for the Km in data set [2] and in data set [3] were 1234 µM and 2586 µM, respectively.

The values above are taken from article PMC8617651, “Cloning, Expression and Characterization of UDP-Glucose Dehydrogenases” (Life, 2021).
